Changes are numbered by the printed parent chain. Like-named read-outs stand apart in the source and are kept apart here.
What was measured:
[1] = target: T1, cynomolgus transferrin receptor (TfR) ectodomain (ECD) (cynomolgus, UniProt Q5RDH6 121-760 (Pongo abelii entry), biotinylated where captured on streptavidin); test: phage ELISA: Fc variant on phage, titrated by OD268 of the phage solution on plate-coated cyno TfR; OD650
T1 construct: also called cyno TfR; cynoTfR
T1 chain: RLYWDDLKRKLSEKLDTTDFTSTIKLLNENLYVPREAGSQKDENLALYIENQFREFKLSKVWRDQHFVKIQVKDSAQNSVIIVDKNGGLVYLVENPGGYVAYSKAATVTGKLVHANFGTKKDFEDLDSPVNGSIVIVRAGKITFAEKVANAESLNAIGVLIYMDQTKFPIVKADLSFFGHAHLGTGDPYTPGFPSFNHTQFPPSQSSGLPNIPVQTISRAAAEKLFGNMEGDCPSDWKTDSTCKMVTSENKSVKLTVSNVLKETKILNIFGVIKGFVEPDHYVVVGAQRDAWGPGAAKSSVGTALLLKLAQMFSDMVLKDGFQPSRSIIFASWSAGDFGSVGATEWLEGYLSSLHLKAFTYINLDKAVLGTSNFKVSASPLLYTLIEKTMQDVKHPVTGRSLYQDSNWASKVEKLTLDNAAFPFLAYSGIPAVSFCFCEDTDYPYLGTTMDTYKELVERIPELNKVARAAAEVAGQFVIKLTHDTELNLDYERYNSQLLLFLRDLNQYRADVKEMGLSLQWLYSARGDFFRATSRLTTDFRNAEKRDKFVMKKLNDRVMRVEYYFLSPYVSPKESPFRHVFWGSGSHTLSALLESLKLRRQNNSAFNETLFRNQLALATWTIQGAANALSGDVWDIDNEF

[2] = target: T2, human transferrin receptor (TfR) ectodomain (ECD) (human, UniProt P02786 121-760, biotinylated where captured on streptavidin); test: phage ELISA: phage at about its EC50 on plate-coated human TfR with soluble holo-Tf added at 0.007-5 uM; OD650
T2 construct: also called human TfR; huTfR

[3] = target: T1, cynomolgus transferrin receptor (TfR) …; test: phage ELISA: Fc variant on phage, titrated by OD268 of the phage solution on plate-coated cyno TfR; OD650
[4] = target: T2, human transferrin receptor (TfR) …; test: competition phage ELISA: phage-displayed clone at about its EC50 on plate-coated human TfR, soluble human TfR varied as competitor; OD650
[5] = target: T1, cynomolgus transferrin receptor (TfR) …; test: phage ELISA: Fc variant on phage, titrated by OD268 of the phage solution on plate-coated cyno TfR; OD650
[6] = target: T1, cynomolgus transferrin receptor (TfR) …; test: as above
[7] = target: T2, human transferrin receptor (TfR) …; test: phage ELISA: Fc variant on phage, titrated by OD268 of the phage solution on plate-coated human TfR; OD650
[8] = target: T3, CH3C.18 Fc-Fab fusion (Homo sapiens (Human), UniProt P0DOX5 230-449 = IgG part); test: phage ELISA: phage-displayed human TfR apical domain, dilution series on plate-coated CH3C.18; OD650
T3 construct: bivalent for TfR; also called CH3C.18.1.18
T3 Fc: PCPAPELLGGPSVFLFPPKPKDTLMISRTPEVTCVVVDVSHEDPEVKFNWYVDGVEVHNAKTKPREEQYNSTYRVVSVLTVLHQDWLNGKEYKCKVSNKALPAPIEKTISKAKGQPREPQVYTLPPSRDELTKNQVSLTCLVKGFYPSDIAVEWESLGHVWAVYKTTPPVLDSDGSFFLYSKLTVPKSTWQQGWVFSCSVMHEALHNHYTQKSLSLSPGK
Method: (§1) The plates were subsequently washed and anti-M13-HRP was added, and after additional washing the plates were developed with TMB substrate and quenched with 2N […].

[9] = target: T4, CH3C.35 Fc-Fab fusion (bivalent) (Homo sapiens (Human), UniProt P0DOX5 230-449 = IgG part); test: phage ELISA: phage-displayed human TfR apical domain, dilution series on plate-coated CH3C.35; OD650
T4 construct: bivalent for TfR; also called CH3C.35.bi; CHC3.35
T4 Fc: T3 Fc with L157Y, H159T, V160E, A162S, V163S, P186T, T189E, W194F
Method: as §1

[10] = target: T4, CH3C.35 Fc-Fab fusion (bivalent); test: phage ELISA: phage-displayed TfR apical domain, dilution series on plate-coated CH3C.35; OD650
Method: as §1

B1: Clone CH2A2.4 (designed binder)
chain: PCPAPELLGGPSVFLFPPKPKDTLMISRTPEVTCVVVDVSHEDPEVSFEWYVDGVPVRWEWQWPREEQYNSTYRVVSVLTVLHQDWLNGKEYKCKVSNKALPAPIEKTISKAKGQPREPQVYTLPPSRDELTKNQVSLTCLVKGFYPSDIAVEWESNGQPENNYKTTPPVLDSDGSFFLYSKLTVDKSRWQQGNVFSCSVMHEALHNHYTQKSLSLSPGK
- binding result [1]: binds
- binding result [2]: binds

B2: Clone CH2A2.1 (designed binder)
chain: B1 chain with S47E, E49I, P56D, W59Y, W63L
- binding result [3]: binds
- binding result [4]: binds

B3: Clone CH2A2.16 (designed binder)
chain: B1 chain with S47W, P56F, R58G, W59V, E60A, W61Y, Q62D, W63V
- binding result [5]: no binding (tested: OD268 1 (phage solution))
- binding result [2]: binds

B4: Clone CH2A2.5 (designed binder)
chain: B1 chain with S47A, E49T, W63N
- binding result [6]: binds
- binding result [7]: binds

B5: loop-truncated human TfR apical domain displayed on phage (receptor)
chain: SSGLPNIPVQTISRAAAEKLFGNMEGDCPSDWKTDSTCRMVTSESKNVKLTVSNDSAQNSVIIVDKNGRLVYLVENPGGYVAYSKAATVTGKLVHANFGTKKDFEDLYTPVNGSIVIVRAGKITFAEKVANAESLNAIGVLIYMDQTKFPIVNAELSGP
notes: fused to phage coat, Myc-tagged; also called human TfR apical domain (phage)
- binding result [8]: binds
- binding result [9]: binds

B6: loop-truncated cynomolgus TfR apical domain displayed on phage (receptor)
chain: B5 chain with R39K, S45N, N47S, R69G, Y108D, T109S, N153K, E155D
notes: fused to phage coat, Myc-tagged; also called cyno apical domain (phage)
- binding result [10]: binds
